Reference: patent US20150023959A1 (BIOVERATIV THERAPEUTICS, published 2015)

Biological target: T1, FVIII-155/VWF-031 heterodimer
T1 construct: The two chains are held together by disulfide bonds between the Fc regions; also called FVIII155/VWF31 heterodimer; FVIII155:VWF31
Assay: Octet BLI, heterodimer immobilized on protein G sensor, FVIII in solution
Procedure: For the assay, full length VWF was captured by using APS sensor. The binding of FVIIIFc and FVIII to the full-length VWF is shown at the lower left panel. The lack of binding of FVIIIY1680 (a mutant having no affinity for VWF) and FVIII:VWF heterodimer (FVIII155/VWF031) is shown at the lower right panel. […] The binding of the constructs to FVIII was measured.
The same experiment was performed in reverse orientation to determine if the D′D3 portion in the FVIII-VWF heterodimer can interact with other FVIII molecules not covalently attached to D′D3. […] Protein G alone with FVIII was used as control. These binding experiments confirmed that D′D3 in heterodimer can interact with only one FVIII molecule which is covalently attached to it and prevent FVIII from interacting with full length wild type VWF molecules.

T1 sequence (chain, as listed by the source): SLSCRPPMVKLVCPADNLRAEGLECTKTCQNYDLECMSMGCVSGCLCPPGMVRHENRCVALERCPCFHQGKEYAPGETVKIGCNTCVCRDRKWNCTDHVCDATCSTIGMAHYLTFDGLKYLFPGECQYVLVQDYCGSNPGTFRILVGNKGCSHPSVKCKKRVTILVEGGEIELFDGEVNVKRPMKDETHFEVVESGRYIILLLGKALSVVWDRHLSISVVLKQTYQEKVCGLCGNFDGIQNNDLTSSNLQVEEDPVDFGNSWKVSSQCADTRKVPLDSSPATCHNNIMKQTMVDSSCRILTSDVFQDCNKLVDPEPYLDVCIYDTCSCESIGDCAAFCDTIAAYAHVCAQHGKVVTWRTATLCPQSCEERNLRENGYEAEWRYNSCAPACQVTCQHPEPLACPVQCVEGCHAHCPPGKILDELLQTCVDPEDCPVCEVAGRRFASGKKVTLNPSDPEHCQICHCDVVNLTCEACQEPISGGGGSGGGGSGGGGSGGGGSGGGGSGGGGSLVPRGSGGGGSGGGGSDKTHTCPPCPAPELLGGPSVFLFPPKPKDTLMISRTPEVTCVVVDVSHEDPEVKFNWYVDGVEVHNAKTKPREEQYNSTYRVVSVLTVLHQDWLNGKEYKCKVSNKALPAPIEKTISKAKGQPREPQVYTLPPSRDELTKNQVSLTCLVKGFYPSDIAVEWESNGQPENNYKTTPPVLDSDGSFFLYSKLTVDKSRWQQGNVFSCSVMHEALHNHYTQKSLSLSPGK

binding result: no binding
B1: rFVIII (other)
chain: ATRRYYLGAVELSWDYMQSDLGELPVDARFPPRVPKSFPFNTSVVYKKTLFVEFTDHLFNIAKPRPPWMGLLGPTIQAEVYDTVVITLKNMASHPVSLHAVGVSYWKASEGAEYDDQTSQREKEDDKVFPGGSHTYVWQVLKENGPMASDPLCLTYSYLSHVDLVKDLNSGLIGALLVCREGSLAKEKTQTLHKFILLFAVFDEGKSWHSETKNSLMQDRDAASARAWPKMHTVNGYVNRSLPGLIGCHRKSVYWHVIGMGTTPEVHSIFLEGHTFLVRNHRQASLEISPITFLTAQTLLMDLGQFLLFCHISSHQHDGMEAYVKVDSCPEEPQLRMKNNEEAEDYDDDLTDSEMDVVRFDDDNSPSFIQIRSVAKKHPKTWVHYIAAEEEDWDYAPLVLAPDDRSYKSQYLNNGPQRIGRKYKKVRFMAYTDETFKTREAIQHESGILGPLLYGEVGDTLLIIFKNQASRPYNIYPHGITDVRPLYSRRLPKGVKHLKDFPILPGEIFKYKWTVTVEDGPTKSDPRCLTRYYSSFVNMERDLASGLIGPLLICYKESVDQRGNQIMSDKRNVILFSVFDENRSWYLTENIQRFLPNPAGVQLEDPEFQASNIMHSINGYVFDSLQLSVCLHEVAYWYILSIGAQTDFLSVFFSGYTFKHKMVYEDTLTLFPFSGETVFMSMENPGLWILGCHNSDFRNRGMTALLKVSSCDKNTGDYYEDSYEDISAYLLSKNNAIEPRSFSQNPPVLKRHQREITRTTLQSDQEEIDYDDTISVEMKKEDFDIYDEDENQSPRSFQKKTRHYFIAAVERLWDYGMSSSPHVLRNRAQSGSVPQFKKVVFQEFTDGSFTQPLYRGELNEHLGLLGPYIRAEVEDNIMVTFRNQASRPYSFYSSLISYEEDQRQGAEPRKNFVKPNETKTYFWKVQHHMAPTKDEFDCKAWAYFSDVDLEKDVHSGLIGPLLVCHTNTLNPAHGRQVTVQEFALFFTIFDETKSWYFTENMERNCRAPCNIQMEDPTFKENYRFHAINGYIMDTLPGLVMAQDQRIRWYLLSMGSNENIHSIHFSGHVFTVRKKEEYKMALYNLYPGVFETVEMLPSKAGIWRVECLIGEHLHAGMSTLFLVYSNKCQTPLGMASGHIRDFQITASGQYGQWAPKLARLHYSGSINAWSTKEPFSWIKVDLLAPMIIHGIKTQGARQKFSSLYISQFIIMYSLDGKKWQTYRGNSTGTLMVFFGNVDSSGIKHNIFNPPIIARYIRLHPTHYSIRSTLRMELMGCDLNSCSMPLGMESKAISDAQITASSYFTNMFATWSPSKARLHLQGRSNAWRPQVNNPKEWLQVDFQKTMKVTGVTTQGVKSLLTSMYVKEFLISSSQDGHQWTLFFQNGKVKVFQGNQDSFTPVVNSLDPPLLTRYLRIHPQSWVHQIALRMEVLGCEAQDLY
notes: also called wild type FVIII
